The values below come from paper PMC10716376, “The assembly of the Mitochondrial Complex I Assembly complex uncovers a redox pathway coordination” (Nature Communications, 2023).

Holding throughout (conditions): both partners purified
Experiment [1] concerns the target T1, ACAD9WT (mature ACAD9, residues 38-621) (human, UniProt Q9H845 38-621).
T1 construct: human ACAD9, mature form, residues 38-621; E. coli codon-optimised synthetic gene; Cloned into pET-21d(+); Plasmid details are in Supplementary Data 1; source: E. coli C43 (DE3), purified (HisTrap, dialysed in SEC buffer)
T1 sequence (looked up): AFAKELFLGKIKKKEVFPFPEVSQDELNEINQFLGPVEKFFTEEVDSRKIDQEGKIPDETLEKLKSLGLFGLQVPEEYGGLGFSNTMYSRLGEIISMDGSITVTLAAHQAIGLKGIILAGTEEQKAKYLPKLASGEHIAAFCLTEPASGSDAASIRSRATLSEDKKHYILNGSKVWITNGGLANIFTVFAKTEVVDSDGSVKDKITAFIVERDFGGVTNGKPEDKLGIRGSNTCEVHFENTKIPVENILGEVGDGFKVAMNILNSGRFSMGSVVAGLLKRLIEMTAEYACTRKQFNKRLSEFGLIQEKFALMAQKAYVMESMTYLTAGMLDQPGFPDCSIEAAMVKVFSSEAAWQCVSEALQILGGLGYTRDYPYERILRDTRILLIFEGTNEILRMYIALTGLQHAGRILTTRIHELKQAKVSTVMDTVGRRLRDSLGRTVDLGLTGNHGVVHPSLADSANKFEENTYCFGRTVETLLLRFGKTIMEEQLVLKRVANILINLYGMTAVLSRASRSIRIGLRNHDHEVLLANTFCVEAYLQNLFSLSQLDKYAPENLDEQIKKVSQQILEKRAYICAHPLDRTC
Briefly: cryo-EM structure; ACAD9WT-ECSIT_(CTER) reconstituted (molar ratio 1:1.25) and purified by gel filtration; 25 mM HEPES, 300 mM NaCl, 1 mM TCEP, pH 7.5; C2 symmetry imposed. For orientation: Size exclusion chromatography separates by hydrodynamic size, large species first.

A further experiment has as its target T2, ACAD9_(SR194TS) (human, UniProt Q9H845 38-621, SR194TS).
T2 construct: human ACAD9, residues 38-621, double mutant SR194TS (mimics the VLCAD gatekeeper loop); source: E. coli C43 (DE3), purified (HisTrap, dialysed in SEC buffer)
T2 sequence (looked up): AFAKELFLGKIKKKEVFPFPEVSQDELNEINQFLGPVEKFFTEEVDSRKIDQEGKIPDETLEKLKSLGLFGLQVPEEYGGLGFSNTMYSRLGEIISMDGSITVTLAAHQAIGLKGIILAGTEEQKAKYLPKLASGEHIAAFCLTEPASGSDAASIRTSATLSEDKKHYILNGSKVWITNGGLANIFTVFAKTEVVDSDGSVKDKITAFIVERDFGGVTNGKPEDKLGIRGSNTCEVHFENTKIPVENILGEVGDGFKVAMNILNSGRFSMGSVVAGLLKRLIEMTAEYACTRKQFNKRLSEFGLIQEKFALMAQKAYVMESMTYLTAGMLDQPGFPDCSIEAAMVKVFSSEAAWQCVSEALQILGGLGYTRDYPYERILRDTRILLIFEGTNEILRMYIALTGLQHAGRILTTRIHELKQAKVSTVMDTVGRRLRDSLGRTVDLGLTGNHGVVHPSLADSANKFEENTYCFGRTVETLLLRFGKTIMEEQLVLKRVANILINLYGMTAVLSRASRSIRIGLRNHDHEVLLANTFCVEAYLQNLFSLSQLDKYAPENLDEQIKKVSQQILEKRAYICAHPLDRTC
Briefly: dynamic light scattering; 278 K, protein at 1-2 mg/ml; complexes reconstituted at molar ratio 1:1.25.

The target of another experiment is T3, ACAD9_(A184S) (human, UniProt Q9H845 38-621, A184S).
T3 construct: human ACAD9, residues 38-621, A184S (mimics the VLCAD gatekeeper loop); source: E. coli C43 (DE3), purified (HisTrap, dialysed in SEC buffer)
T3 sequence (looked up): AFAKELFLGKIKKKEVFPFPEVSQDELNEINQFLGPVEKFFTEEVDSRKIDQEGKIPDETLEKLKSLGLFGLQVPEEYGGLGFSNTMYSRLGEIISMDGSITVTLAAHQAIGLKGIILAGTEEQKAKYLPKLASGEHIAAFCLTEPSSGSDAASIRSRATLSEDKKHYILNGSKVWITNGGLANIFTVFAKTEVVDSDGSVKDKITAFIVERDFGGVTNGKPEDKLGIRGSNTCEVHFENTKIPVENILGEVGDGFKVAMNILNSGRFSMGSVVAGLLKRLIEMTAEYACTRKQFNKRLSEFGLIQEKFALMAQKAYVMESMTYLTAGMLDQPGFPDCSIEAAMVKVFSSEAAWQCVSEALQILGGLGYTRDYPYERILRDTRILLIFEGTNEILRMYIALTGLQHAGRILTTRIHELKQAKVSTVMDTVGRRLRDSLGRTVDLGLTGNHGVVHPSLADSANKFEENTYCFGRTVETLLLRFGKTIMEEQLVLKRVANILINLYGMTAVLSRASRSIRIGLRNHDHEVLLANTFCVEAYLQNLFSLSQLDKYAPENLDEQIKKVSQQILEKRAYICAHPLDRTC
The experiment is described as above.

The next experiment deals with T4, ACAD9_(S191A) (human, UniProt Q9H845 38-621, S191A).
T4 construct: human ACAD9, residues 38-621, S191A; One FAD per protomer in the cryo-EM structure; source: E. coli C43 (DE3), purified (HisTrap, dialysed in SEC buffer)
T4 sequence (looked up): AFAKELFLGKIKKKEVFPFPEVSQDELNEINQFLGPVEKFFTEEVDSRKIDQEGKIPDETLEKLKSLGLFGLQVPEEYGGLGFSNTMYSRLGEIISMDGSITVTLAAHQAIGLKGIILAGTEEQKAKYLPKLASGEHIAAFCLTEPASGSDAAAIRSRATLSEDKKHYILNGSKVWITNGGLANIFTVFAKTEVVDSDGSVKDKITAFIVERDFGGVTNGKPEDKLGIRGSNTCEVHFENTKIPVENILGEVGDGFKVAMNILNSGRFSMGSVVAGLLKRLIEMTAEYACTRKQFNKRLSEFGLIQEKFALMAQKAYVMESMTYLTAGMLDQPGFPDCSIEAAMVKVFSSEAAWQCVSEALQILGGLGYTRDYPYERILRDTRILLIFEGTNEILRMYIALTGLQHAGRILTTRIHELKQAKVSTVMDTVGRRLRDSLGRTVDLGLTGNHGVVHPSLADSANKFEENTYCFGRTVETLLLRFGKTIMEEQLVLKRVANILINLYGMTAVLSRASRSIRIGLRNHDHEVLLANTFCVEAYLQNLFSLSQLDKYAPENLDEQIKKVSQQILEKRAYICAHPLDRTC
Nature of the experiment: ITC; 25 °C; ACAD9 at 49 uM in the cell, titrated with ECSIT at 300 uM; 50 mM Tris-HCl pH 7.5, 250 mM NaCl. (Isothermal titration calorimetry measures the heat released or taken up as one component is titrated into another.)

For another experiment, the target named is T5, ACAD9_(A184S/SR194TS) (human, UniProt Q9H845 38-621, A184S | SR194TS).
T5 construct: human ACAD9, residues 38-621, A184S and SR194TS combined (mimics the VLCAD gatekeeper loop); source: E. coli C43 (DE3), purified (HisTrap, dialysed in SEC buffer)
T5 sequence (looked up): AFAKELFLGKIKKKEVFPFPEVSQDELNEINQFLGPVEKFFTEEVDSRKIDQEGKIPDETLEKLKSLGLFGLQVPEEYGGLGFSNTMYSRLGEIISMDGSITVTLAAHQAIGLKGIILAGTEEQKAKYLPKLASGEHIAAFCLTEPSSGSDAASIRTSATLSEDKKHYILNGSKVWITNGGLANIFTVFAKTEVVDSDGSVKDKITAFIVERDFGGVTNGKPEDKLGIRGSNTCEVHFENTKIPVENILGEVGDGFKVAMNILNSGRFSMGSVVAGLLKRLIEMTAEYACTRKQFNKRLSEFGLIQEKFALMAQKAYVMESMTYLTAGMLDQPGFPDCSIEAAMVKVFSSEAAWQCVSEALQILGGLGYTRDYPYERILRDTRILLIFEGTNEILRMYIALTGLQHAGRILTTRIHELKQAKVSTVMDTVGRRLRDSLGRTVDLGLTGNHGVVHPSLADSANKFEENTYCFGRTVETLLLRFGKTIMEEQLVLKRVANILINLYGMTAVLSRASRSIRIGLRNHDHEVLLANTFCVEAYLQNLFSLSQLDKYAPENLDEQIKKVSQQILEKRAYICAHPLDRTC
Briefly: mass photometry; ACAD9 (or VLCAD) at 20-50 nM in 25 mM HEPES pH 7.5, 250 mM NaCl, or diluted in 4.8 uM ECSIT solution for complex formation.

As a reminder, the Kd is the concentration at which binding is half-saturated. A lower Kd goes with a tighter complex.

B1: ECSIT_(CTER) (residues 221-431) (domain or fragment, human, UniProt Q9BQ95 221-431, looked up)
chain: QDPVELAMFGLRHMEPDLSARVTIYQVPLPKDSTGAADPPQPHIVGIQSPDQQAALARHNPARPVFVEGPFSLWLRNKCVYYHILRADLLPPEEREVEETPEEWNLYYPMQLDLEYVRSGWDNYEFDINEVEEGPVFAMCMAGAHDQATMAKWIQGLQETNPTLAQIPVVFRLAGSTRELQTSSAGLEEPPLPEDHQEEDDNLQRQQQGQS
notes: human ECSIT, residues 221-431; E. coli codon-optimised synthetic gene; Only residues 320-334 are modelled in the cryo-EM map; Plasmid details are in Supplementary Data 1; also called C-terminal ECSIT; source: E. coli BL21 Star (DE3), purified (HisTrap, SEC)
Take B1: the “stoichiometry N” value in experiment [1] was 1 ECSIT_(CTER) per ACAD9 protomer. Besides, the binding result with ACAD9_(SR194TS), in the experiment with ACAD9_(A184S) and in the experiment with ACAD9_(A184S/SR194TS) was “binds” in each case. In addition, the dissociation constant (Kd) with ACAD9_(S191A) came to 3.93 µM. The “fold decrease in fold change against ACAD9WT-ECSIT_(CTER)” value in the experiment with ACAD9_(S191A) was about 3 fold.
